Experimental findings from the Immune Epitope Database (IEDB) are described below.

The Kd is a measure of binding affinity in units of concentration.

Among the targets are HLA-A*33:01; HLA-A*11:01; HLA-A*68:01; HLA-A*03:01; HLA-A*31:01.
Holding throughout (test): IEDB peptide-MHC binding, purified MHC/competitive/radioactivity; filed as Kd, often an IC50 or EC50 that approximates it; ≥ and ≤ were set here for values at or beyond the usual limits of such assays
[1] abbreviates: source organism: Vaccinia virus WR.
Where [2] appears, read: source organism: SARS coronavirus Tor2.
The mark [3] stands for this setting: source organism: Mammarenavirus machupoense.

In the case of SSNKDPITVY, the Kd in the experiment with HLA-A*33:01 (setting [1]) is no less than 70000 nM; in the experiment with HLA-A*11:01 (setting [1]) it was 1880 nM; with HLA-A*68:01 (setting [1]), no less than 42800 nM; in the experiment with HLA-A*03:01 (setting [1]) it was no less than 70100 nM; with HLA-A*31:01 (setting [1]) it was no less than 50900 nM.
For PADCFLVKLK the same measures were 17100 nM, 1510 nM, no less than 22400 nM, 2910 nM and no less than 31200 nM.
As for EIIFLKLFK, the Kd with HLA-A*33:01 (setting [1]) is 99.3 nM; with HLA-A*11:01 (setting [1]) it was 1.25 nM; with HLA-A*68:01 (setting [1]) it was 0.699 nM; in the experiment with HLA-A*03:01 (setting [1]), 16.1 nM; in the experiment with HLA-A*31:01 (setting [1]) it was 602 nM.
Take LSARNKLFKR: the Kd is 1710 nM with HLA-A*33:01 (setting [1]); 2680 nM with HLA-A*11:01 (setting [1]); 124 nM in the experiment with HLA-A*68:01 (setting [1]); no less than 70100 nM with HLA-A*03:01 (setting [1]); 16.9 nM with HLA-A*31:01 (setting [1]).
Regarding MFLTSVINR, the Kd with HLA-A*33:01 (setting [1]) came out at 0.841 nM; in the experiment with HLA-A*11:01 (setting [1]), 283 nM; with HLA-A*68:01 (setting [1]), 18.8 nM; in the experiment with HLA-A*03:01 (setting [1]) it was 355 nM; with HLA-A*31:01 (setting [1]), 1.16 nM.
In the case of MVMCGGSLY, the Kd with HLA-A*33:01 (setting [2]) stood at 4620 nM; with HLA-A*11:01 (setting [2]), 73.9 nM; with HLA-A*68:01 (setting [2]), 22.6 nM; with HLA-A*03:01 (setting [2]) it was 41.9 nM; with HLA-A*31:01 (setting [2]), 70.4 nM.
As for DVDIYDAVR, the Kd in the experiment with HLA-A*33:01 (setting [1]) is 2280 nM; with HLA-A*11:01 (setting [1]), no less than 77900 nM; with HLA-A*68:01 (setting [1]), 179 nM; with HLA-A*03:01 (setting [1]), no less than 53300 nM; in the experiment with HLA-A*31:01 (setting [1]), 14000 nM.
In the case of YCSTNHLSK, the Kd with HLA-A*33:01 (setting [3]) is no less than 77700 nM; with HLA-A*11:01 (setting [3]), 14900 nM; with HLA-A*68:01 (setting [3]) it was no less than 23100 nM; with HLA-A*03:01 (setting [3]), 19200 nM; with HLA-A*31:01 (setting [3]), no less than 77900 nM.
On to SVYAWERKK, for which the Kd was no less than 38700 nM in the experiment with HLA-A*33:01 (setting [2]); 230 nM with HLA-A*11:01 (setting [2]); 5320 nM in the experiment with HLA-A*68:01 (setting [2]); 134 nM with HLA-A*03:01 (setting [2]); 1940 nM with HLA-A*31:01 (setting [2]).
As to EIKQGRVNK, the Kd with HLA-A*33:01 (setting [1]) is 3260 nM; with HLA-A*11:01 (setting [1]), 517 nM; with HLA-A*68:01 (setting [1]) it was 88.4 nM; with HLA-A*03:01 (setting [1]) it was 640 nM; with HLA-A*31:01 (setting [1]), no less than 51300 nM.
Take STSLSEEFFH: the Kd was no less than 64800 nM with HLA-A*33:01 (setting [3]); 4310 nM in the experiment with HLA-A*11:01 (setting [3]); 13200 nM with HLA-A*68:01 (setting [3]); no less than 43100 nM in the experiment with HLA-A*03:01 (setting [3]); 14700 nM in the experiment with HLA-A*31:01 (setting [3]).
On to SSSIDVDKR, for which the Kd with HLA-A*33:01 (setting [1]) was no less than 35000 nM; in the experiment with HLA-A*11:01 (setting [1]), 4750 nM; with HLA-A*68:01 (setting [1]) it was 146 nM; with HLA-A*03:01 (setting [1]), no less than 78000 nM; in the experiment with HLA-A*31:01 (setting [1]) it was 8950 nM.
Take AQCFKMFYK: the Kd in the experiment with HLA-A*33:01 (setting [2]) was 878 nM; with HLA-A*11:01 (setting [2]), 2.52 nM; with HLA-A*68:01 (setting [2]), 177 nM; with HLA-A*03:01 (setting [2]) it was 25.6 nM; in the experiment with HLA-A*31:01 (setting [2]) it was 6.24 nM.
For QITTDDLVK, the Kd is 3750 nM with HLA-A*33:01 (setting [1]); 803 nM with HLA-A*11:01 (setting [1]); 436 nM in the experiment with HLA-A*68:01 (setting [1]); no less than 38900 nM with HLA-A*03:01 (setting [1]); 207 nM in the experiment with HLA-A*31:01 (setting [1]).
For FTQHLLNIR the same measures were no less than 77700 nM, no less than 77900 nM, no less than 77700 nM, no less than 78000 nM and no less than 77900 nM.
SMGFKVTTRR: the Kd was 747 nM with HLA-A*33:01 (setting [1]); 1050 nM in the experiment with HLA-A*11:01 (setting [1]); 213 nM with HLA-A*68:01 (setting [1]); 97.2 nM in the experiment with HLA-A*03:01 (setting [1]); 22.1 nM with HLA-A*31:01 (setting [1]).
Consider LQFAYSNRNR, for which the Kd came out at 1270 nM in the experiment with HLA-A*33:01 (setting [2]); 1730 nM with HLA-A*11:01 (setting [2]); 1050 nM with HLA-A*68:01 (setting [2]); 890 nM with HLA-A*03:01 (setting [2]); 5.59 nM with HLA-A*31:01 (setting [2]).
Take LSPAHLINK: the Kd with HLA-A*33:01 (setting [1]) was no less than 35800 nM; in the experiment with HLA-A*11:01 (setting [1]), 39.4 nM; with HLA-A*68:01 (setting [1]), 16300 nM; in the experiment with HLA-A*03:01 (setting [1]) it was 208 nM; with HLA-A*31:01 (setting [1]), 18600 nM.
Turning to LVVISVIFY, the Kd in the experiment with HLA-A*33:01 (setting [1]) is no less than 66100 nM; in the experiment with HLA-A*11:01 (setting [1]), no less than 36700 nM; in the experiment with HLA-A*68:01 (setting [1]), 5480 nM; in the experiment with HLA-A*03:01 (setting [1]), no less than 24400 nM; with HLA-A*31:01 (setting [1]), 10700 nM.
On to QTVDFTDCR, for which the Kd with HLA-A*33:01 (setting [1]) is 5810 nM; with HLA-A*11:01 (setting [1]), 348 nM; with HLA-A*68:01 (setting [1]), 1.57 nM; with HLA-A*03:01 (setting [1]), no less than 35500 nM; with HLA-A*31:01 (setting [1]) it was 722 nM.
Taken in the same sequence, the figures for PIINTHSFY were no less than 77700 nM, no less than 77900 nM, no less than 77700 nM, no less than 78000 nM and no less than 77900 nM.
Taken in the same sequence, the figures for RTMPNESRVK were no less than 70000 nM, 4.57 nM, 1120 nM, 25.1 nM and 123 nM.
Regarding STCSAVTDR, the Kd with HLA-A*33:01 (setting [1]) was 1390 nM; in the experiment with HLA-A*11:01 (setting [1]) it was 31.2 nM; with HLA-A*68:01 (setting [1]) it was 55.1 nM; in the experiment with HLA-A*03:01 (setting [1]), no less than 31000 nM; with HLA-A*31:01 (setting [1]), 119 nM.
For YITIQDRPR the same measures were 187 nM, no less than 44800 nM, 26.2 nM, no less than 78000 nM and 138 nM.
